Test results reported in patent publication US20240361320A1.

Molecular target: SARS-CoV-2 3CL^pro enzyme (Recombinant derived from Escherichia coli, ab277614, ABCAM; SEQ ID NO:2) (SARS-CoV-2) (UniProt P0DTC1)

3CL^pro specific antibody (Rabbit-derived, NBP3-07062, Novus Biologicals; binding to SEQ ID NO:3)
time to maximal binding: 20 s
